Reference: US20180236024A1 (STC UNM, published 2018)

Legend:
TLR3 = molecular target: T1, TLR3 (UniProt O15455 24-904, limits assumed); assay: co-IP with anti-Flag, GFP-IRGM and Flag-TLR3
T1 construct: also called Flag-TLR3 (Addgene Plasmid 13084)
T1 sequence (looked up): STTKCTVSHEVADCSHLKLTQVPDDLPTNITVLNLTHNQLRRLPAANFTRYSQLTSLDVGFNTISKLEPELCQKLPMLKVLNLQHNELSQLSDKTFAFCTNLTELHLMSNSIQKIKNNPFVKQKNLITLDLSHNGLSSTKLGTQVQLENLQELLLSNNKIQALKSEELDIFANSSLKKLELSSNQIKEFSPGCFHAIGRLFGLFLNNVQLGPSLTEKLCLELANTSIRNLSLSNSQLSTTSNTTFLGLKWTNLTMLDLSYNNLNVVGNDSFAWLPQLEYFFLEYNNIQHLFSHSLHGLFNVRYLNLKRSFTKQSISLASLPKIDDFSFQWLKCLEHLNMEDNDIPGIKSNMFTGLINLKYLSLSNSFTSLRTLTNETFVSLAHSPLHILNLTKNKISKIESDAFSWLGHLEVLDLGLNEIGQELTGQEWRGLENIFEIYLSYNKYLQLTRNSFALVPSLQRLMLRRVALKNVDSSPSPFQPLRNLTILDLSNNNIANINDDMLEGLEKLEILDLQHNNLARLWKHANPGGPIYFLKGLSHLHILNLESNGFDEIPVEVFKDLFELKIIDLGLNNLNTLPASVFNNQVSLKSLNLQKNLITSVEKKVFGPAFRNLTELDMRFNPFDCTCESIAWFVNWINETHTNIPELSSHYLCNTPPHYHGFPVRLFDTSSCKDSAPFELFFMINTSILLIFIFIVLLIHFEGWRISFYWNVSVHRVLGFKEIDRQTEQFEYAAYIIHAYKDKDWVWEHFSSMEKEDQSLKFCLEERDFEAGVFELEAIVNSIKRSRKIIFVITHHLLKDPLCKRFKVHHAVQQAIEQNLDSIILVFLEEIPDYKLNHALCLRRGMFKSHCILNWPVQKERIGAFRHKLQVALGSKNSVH

ATG14L = molecular target: T2, ATG14L (UniProt Q6ZNE5 1-492); assay: co-IP of Flag-IRGM and endogenous ATG14
T2 construct: also called endogenous ATG14
T2 sequence (Q6ZNE5 whole entry): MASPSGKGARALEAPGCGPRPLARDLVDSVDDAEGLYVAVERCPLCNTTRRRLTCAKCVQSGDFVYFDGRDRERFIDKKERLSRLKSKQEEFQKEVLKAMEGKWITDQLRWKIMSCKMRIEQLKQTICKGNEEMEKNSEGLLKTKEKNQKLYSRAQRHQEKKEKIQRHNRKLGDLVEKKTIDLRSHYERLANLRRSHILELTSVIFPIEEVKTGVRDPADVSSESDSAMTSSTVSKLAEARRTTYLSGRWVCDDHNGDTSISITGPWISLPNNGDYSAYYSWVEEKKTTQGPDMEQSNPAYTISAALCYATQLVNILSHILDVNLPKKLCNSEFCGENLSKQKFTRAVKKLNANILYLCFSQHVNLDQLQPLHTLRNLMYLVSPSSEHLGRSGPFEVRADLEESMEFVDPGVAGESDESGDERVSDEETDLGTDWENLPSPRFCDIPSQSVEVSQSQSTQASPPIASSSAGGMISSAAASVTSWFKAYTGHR

NOD2 (full length) = molecular target: T3, NOD2 (full length) (UniProt Q9HC29 1-1040); assay: co-IP, starved HT29 cells and HEK293T cells
T3 construct: also called Flag-NOD2; endogenous NOD2
T3 sequence (Q9HC29 whole entry): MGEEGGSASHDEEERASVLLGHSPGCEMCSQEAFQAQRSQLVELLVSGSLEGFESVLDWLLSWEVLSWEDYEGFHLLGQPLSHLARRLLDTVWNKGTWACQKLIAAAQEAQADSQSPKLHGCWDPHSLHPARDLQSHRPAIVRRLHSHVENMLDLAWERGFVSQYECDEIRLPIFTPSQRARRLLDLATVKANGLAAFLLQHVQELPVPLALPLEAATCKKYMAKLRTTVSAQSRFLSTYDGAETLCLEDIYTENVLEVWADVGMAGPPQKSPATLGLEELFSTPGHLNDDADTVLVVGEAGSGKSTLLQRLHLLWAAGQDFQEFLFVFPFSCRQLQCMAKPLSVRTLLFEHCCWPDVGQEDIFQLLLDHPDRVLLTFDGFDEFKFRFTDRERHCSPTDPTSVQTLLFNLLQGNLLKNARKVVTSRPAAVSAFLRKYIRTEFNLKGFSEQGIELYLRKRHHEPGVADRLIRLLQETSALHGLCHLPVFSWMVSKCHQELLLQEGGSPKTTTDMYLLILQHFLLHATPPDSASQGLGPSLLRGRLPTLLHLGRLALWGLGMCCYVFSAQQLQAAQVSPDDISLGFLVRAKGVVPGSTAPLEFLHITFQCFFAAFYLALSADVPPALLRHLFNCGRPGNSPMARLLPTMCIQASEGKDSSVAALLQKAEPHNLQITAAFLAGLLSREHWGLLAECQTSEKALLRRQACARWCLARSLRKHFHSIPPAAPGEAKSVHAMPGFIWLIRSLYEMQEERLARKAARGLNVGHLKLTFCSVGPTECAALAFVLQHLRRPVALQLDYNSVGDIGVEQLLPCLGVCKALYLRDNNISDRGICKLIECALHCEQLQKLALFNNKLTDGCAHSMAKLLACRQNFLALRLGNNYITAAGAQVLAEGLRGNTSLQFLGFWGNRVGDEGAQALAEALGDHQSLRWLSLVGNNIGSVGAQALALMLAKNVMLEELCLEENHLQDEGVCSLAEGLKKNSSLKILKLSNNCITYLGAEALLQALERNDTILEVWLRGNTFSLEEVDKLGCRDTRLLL

[1] = molecular target: the molecule itself; assay: co-IP of differently tagged IRGM, HEK293T cells

binding result (TLR3): binds
binding result (ATG14L): binds
binding result (NOD2 (full length)): binds
B1: IRGM (human IRGM, isoform d) (other, UniProt A1A4Y4-4 1-202, looked up)
chain: MEAMNVEKASADGNLPEVISNIKETLKIVSRTPVNITMAGDSGNGMSTFISALRNTGHEGKASPPTELVKATQRCASYFSSHFSNVVLWDLPGTGSATTTLENYLMEMQFNRYDFIMVASAQFSMNHVMLAKTAEDMGKKFYIVWTKLDMDLSTGALPEVQLLQIRENVLENLQKERLACHEKYLKSTPENSTRPRNINLCS
notes: Stood in cell lysates as GFP-, Flag- or V5-tagged protein or as the endogenous protein, depending on the experiment; Isoform d is said to be used in all experiments; also called GFP-IRGM; GFP-IRGMd
binding result [1]: binds
